Publication PMC6588657 (2018)

B1: full-length, C-terminal, Flag-tagged human Lnp [human] / Myc-ATL3 [human] (parent complex)
chain 1: MGGLFSRWRTKPSTVEVLESIDKEIQALEEFREKNQRLQKLWVGRLILYSSVLYLFTCLIVYLWYLPDEFTARLAMTLPFFAFPLIIWSIRTVIIFFFSKRTERNNEALDDLKSQRKKILEEVMEKETYKTAKLILERFDPDSKKAKECEPPSAGAAVTARPGQEIRQRTAAQRNLSPTPASPNQGPPPQVPVSPGPPKDSSAPGGPPERTVTPALSSNVLPRHLGSPATSVPGMGLHPPGPPLARPILPRERGALDRIVEYLVGDGPQNRYALICQQCFSHNGMALKEEFEYIAFRCAYCFFLNPARKTRPQAPRLPEFSFEKRQVVEGSSSVGPLPSGSVLSSDNQFNEESLEHDVLDDNTEQTDDKIPATEQTNQVIEKASDSEEPEEKQETENEEASVIETNSTVPGADSIPDPELSGESLTAE
chain 2: MLSPQRVAAAASRGADDAMESSKPGPVQVVLVQKDQHSFELDEKALASILLQDHIRDLDVVVVSVAGAFRKGKSFILDFMLRYLYSQKESGHSNWLGDPEEPLTGFSWRGGSDPETTGIQIWSEVFTVEKPGGKKVAVVLMDTQGAFDSQSTVKDCATIFALSTMTSSVQIYNLSQNIQEDDLQQLQLFTEYGRLAMDEIFQKPFQTLMFLVRDWSFPYEYSYGLQGGMAFLDKRLQVKEHQHEEIQNVRNHIHSCFSDVTCFLLPHPGLQVATSPDFDGKLKDIAGEFKEQLQALIPYVLNPSKLMEKEINGSKVTCRGLLEYFKAYIKIYQGEDLPHPKSMLQATAEANNLAAAASAKDIYYNNMEEVCGGEKPYLSPDILEEKHCEFKQLALDHFKKTKKMGGKDFSFRYQQELEEEIKELYENFCKHNGSKNVFSTFRTPAVLFTGIVALYIASGLTGFIGLEVVAQLFNCMVGLLLIALLTWGYIRYSGQYRELGGAIDFGAAYVLEQASSHIGNSTQATVRDAVVGRPSMDKKAQ

Variants of: B1
Assay: co-immunoprecipitation; COS-7 cell lysates containing 1% Triton X-100; anti-Flag antibody-conjugated agarose; band quantification by Image J; parent: 1

| ratio to parent | Variant |
| --- | --- |
| 0.34 | chain 1 L28D |
| 0.32 | chain 1 I25D |
| 0.26 | chain 1 I25D, chain 1 L28D |
